The target of data set [1] is SsKDG-aldolase Variant 2 (T157V/D181Q/A198L) (Sulfolobus solfataricus). Briefly: crystal structure; hanging-drop vapor diffusion at 18 °C; 11–15% PEG4K, 4–12% isopropanol, 0.1 M HEPES pH 5.9–6.8; unsoaked crystals, crystals soaked in 30 mM 3-deoxy-hexulosonic acid, Variant 2 also cocrystallized with 100 mM pyruvate.
The target in the next data set is T1, SsKDG-aldolase (Saccharolobus solfataricus, UniProt O54288, T157V/A198L).
T1 construct: full length, pET-3a in E. coli BL21 (DE3); heat treatment, anion exchange, gel filtration; no tag mentioned; 293 C-alpha positions; tetramer
Briefly: X-ray crystal structure. Format: binding. The settings on record: Variant 3; 2 min soak in 30 mM ligand; active site, covalent (Lys155 Schiff base). From the text: X-ray crystal structure on SsKDG-aldolase | which enabled us to determine the structure of the […] complex

Substrate in data set [2]: CC(=O)C(=O)O
Description: thiobarbituric acid assay of aldol product. The format is biochemical, Saccharolobus solfataricus. The settings on record: 50 mM sodium phosphate pH 6.0, 70 °C.
Description: thiobarbituric acid assay of aldol product on SsKDG-aldolase

Substrate in data set [3]: O=C[C@H](O)CO
Briefly: purified protein. The settings on record: 50 mM sodium phosphate pH 6.0, 70 °C.

Substrate in data set [4]: O=C[C@@H](O)CO
Briefly: purified protein. Particulars: 50 mM sodium phosphate pH 6.0, 70 °C.

Setting [5] is: Variant 3, near-saturating D-glyceraldehyde.
Setting [6] is: Variant 3, near-saturating pyruvate.
The mark [7] stands for this setting: Variant 4, near-saturating D-glyceraldehyde.
The mark [8] stands for this setting: Variant 4, near-saturating pyruvate.

Molecule “SsKDG-aldolase Variant 2 (T157V/D181Q/A198L) (enzyme)” gave a stoichiometry N in data set [1] of 4.

Take `O=C(O)C(=O)C[C@@H](O)[C@@H](O)CO` [L-KDGlc]: at SsKDG-aldolase, the X-ray crystal structure result is reported as “which enabled us to determine the structure of the L-KDGlc complex”.

B1: SsKDG-aldolase (Saccharolobus solfataricus; A198L/T157V) (protein)
chain: PEIITPIITPFTKDNRIDKEKLKIHAENLIRKGIDKLFVNGTTGLGPSLSPEEKLENLKAVYDVTNKIIFQVGGLNLDDAIRLAKLSKDFDIVGIASYAPYYYPRMSEKHLVKYFKTLCEVSPHPVYLYNYPTATGKDIDAKVAKEIGCFTGVKDVIENIIHTLDYKRLNPNMLVYSGSDMLIATVASTGLDGNVALGSNYLPEVTVTIKKLAMERKIDEALKLQFLHDEVIEASRIFGSLSSNYVLTKYFQGYDLGYPRPPIFPLDDEEERQLIKKVEGIRAKLVELKILKE
notes: full length, pET-3a in E. coli BL21 (DE3); heat treatment, anion exchange, gel filtration; no tag mentioned; 293 C-alpha positions; tetramer
Consider B1, for which the values for the Km (in data set [2] (setting [5]); in “purified protein [3]” (setting [6]); in “purified protein [4]” (setting [6])) were 2.9 (±0.1) mM, 19.5 (±0.2) mM and 37.6 (±0.2) mM, respectively. Further, the Vmax in data set [2] (setting [5]) came out at 1.7 µmol/min/mg; in “purified protein [3]” (setting [6]), 1.8 µmol/min/mg; in the data set “purified protein [4]” (setting [6]), 6.1 µmol/min/mg.

B2: SsKDG-aldolase (Saccharolobus solfataricus; A198F/Y103F/Y130F) (protein)
chain: PEIITPIITPFTKDNRIDKEKLKIHAENLIRKGIDKLFVNGTTGLGPSLSPEEKLENLKAVYDVTNKIIFQVGGLNLDDAIRLAKLSKDFDIVGIASYAPYFYPRMSEKHLVKYFKTLCEVSPHPVYLFNYPTATGKDIDAKVAKEIGCFTGVKDTIENIIHTLDYKRLNPNMLVYSGSDMLIATVASTGLDGNVAFGSNYLPEVTVTIKKLAMERKIDEALKLQFLHDEVIEASRIFGSLSSNYVLTKYFQGYDLGYPRPPIFPLDDEEERQLIKKVEGIRAKLVELKILKE
notes: as for B1
In the case of B2, the values for the Km (in data set [2] (setting [7]); in the data set “purified protein [3]” (setting [8]); in “purified protein [4]” (setting [8])) were 0.3 (±0.04) mM, 6.9 (±0.2) mM and 6.3 (±0.18) mM, respectively. Moreover, the results for the Vmax (in data set [2] (setting [7]); in “purified protein [3]” (setting [8]); in “purified protein [4]” (setting [8])) were 0.09 µmol/min/mg, 0.11 µmol/min/mg and 0.06 µmol/min/mg, respectively.

In general, stoichiometry N refers to the number of molecules, sites or subunits per partner or assembly. Usually Vmax stands for the rate approached at saturating substrate.

(Values after PMC9486944, “Structurally Informed Mutagenesis of a Stereochemically Promiscuous Aldolase Produces Mutants That Catalyze the Diastereoselective Syntheses of All Four Stereoisomers of 3-Deoxy-hexulosonic Acid” (ACS Catalysis, 2022).)
